Among the targets are HLA-B*07:02; HLA-B*57:01; HLA-B*44:03; HLA-A*02:01; HLA-B*35:01.
Holding throughout (test): IEDB peptide-MHC binding, purified MHC/competitive/radioactivity; ≥ and ≤ were set here for values at or beyond the usual limits of such assays
Common to all, as to conditions: source organism: Bordetella pertussis

The values below come from the Immune Epitope Database (IEDB).

One may read the IC50 as the concentration that inhibits the measured activity by half.

Regarding RVRALAWLL, the 50% inhibitory concentration (IC50) amounted to 0.413 µM with HLA-B*07:02 and 0.709 µM with HLA-B*57:01.
YENKSSTPL: the half-inhibitory concentration (IC50) in the assay with HLA-B*44:03 turned out to be 37.5 µM.
Take HFIGYIYEV: in the assay with HLA-A*02:01, the IC50 is 0.0161 µM.
Turning to YIWGLYQTY, the IC50 in the assay with HLA-B*44:03 came out at 0.471 µM.
In the case of ALAAIASAA, the concentration for half-maximal inhibition (IC50) with HLA-A*02:01 came to 12.3 µM.
As for RTRGQARSG, the half-inhibitory concentration (IC50) in the assay with HLA-B*57:01 amounted to 11.8 µM.
For the sequence VEDIGGKNY, in the assay with HLA-B*44:03, the 50% inhibitory concentration (IC50) was found to be 16 µM.
Turning to HVSKEEQYY, the values for the IC50 in the assay with HLA-B*35:01 and in the assay with HLA-B*57:01 were 69.9 µM and at least 70.4 µM, respectively.
DATLVGAKF: the IC50 with HLA-B*35:01 came to 59.8 µM.
KPDRAARVA: the IC50 with HLA-B*07:02 turned out to be 0.461 µM.
With QAIVVGKDL, the concentration for half-maximal inhibition (IC50) with HLA-B*44:03 is 31.8 µM.
LLGSHVARA: the IC50 with HLA-A*02:01 was 2.35 µM.
